This is an account of results in PMC5463187.

A word on the stoichiometry N: it is a count of units in the complex or per binding partner.

This assay addresses RSV strain A2 pre-fusion F, single-chain triple mutant (SC-TM) construct (respiratory syncytial virus subgroup A strain A2). Description: crystal structure.

Substance “RSV strain A2 pre-fusion F, single-chain triple mutant (SC-TM) construct (natural protein)” displayed a stoichiometry N of 3.
